Results: paper PMC4601788

What was measured:
[1] = biological target: rLiPABP (poly(A)-binding protein) (Leishmania infantum) (UniProt A4IBV3); test: ELONA
[2] = biological target: Flag-LiPABP (Leishmania infantum) (UniProt A4IBV3); test: pull-down
[3] = biological target: Myc-LiPABP (Leishmania infantum) (UniProt A4IBV3); test: competition
[4] = biological target: endogenous LiPABP (eLiPABP) (Leishmania infantum) (UniProt A4IBV3); test: competition

Sequence | Kd [1] | binding signal (% of total Flag-LiPABP recovered) [2] | binding signal (% reduction of poly(A) binding) [3] | binding signal (% reduction of poly(A) binding) [4]
GTTGCTCGTATTTAGGGCGGCCCCCTCCTCCCTCCCCCACCCGACACTATTCCCCCCCACACCAGTCTTCATCCGC [ApPABP#11] | 10.8 nM | < 50 | 80 | 30
GCGGATGAAGACTGGTGTGGACAGTTCTACGAGGATTACGCTGTTACTAAGTGTGGGGGCCCTAAATACGAGCAAC [ApPABP#3] | 5.4 nM | > 75 | – | –
GCGGATGAAGACTGGTGTCCAGAGTGAACACAAAGAAATTGAAATACGTAAGCTCCGGGCCCTAAATACGAGCAAC [ApPABP#7] | 6 nM | > 75 | – | –
